Test results as given in patent US20220281980A1 (Bristol-Myers Squibb, published 2022).
Changes are numbered by the printed parent chain. “And” between values parts separate entries of the source, which are not always exact repeats. Identical values can stand only once.

Legend:
[1] = biological target: T1, recombinant soluble human MICA*009 antigen (human, UniProt Q29983 24-307); experiment: SPR (Biacore T200, 37 C), antibody captured on anti-human Fc, antigen 500 and 50 nM
T1 construct: also called huIMICA-his allele *009
T1 chain: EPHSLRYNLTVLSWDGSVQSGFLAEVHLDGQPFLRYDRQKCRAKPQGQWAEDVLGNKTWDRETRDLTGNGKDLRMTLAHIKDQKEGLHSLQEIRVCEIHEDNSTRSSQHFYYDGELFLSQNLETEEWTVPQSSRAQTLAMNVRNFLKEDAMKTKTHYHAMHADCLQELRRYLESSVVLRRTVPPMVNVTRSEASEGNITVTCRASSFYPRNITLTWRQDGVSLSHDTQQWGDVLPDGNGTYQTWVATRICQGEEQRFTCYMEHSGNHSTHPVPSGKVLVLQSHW
Procedure: (§1) Anti-MICA/B antibodies were captured to α-human Fc surfaces. MICA allele antigens were injected at high and low nanomolar concentrations (500 nM and 50 nM, except indicated otherwise). The results for antibodies MICA.36 and MICA.38 (MICA.2 with a Ser inserted between residues 95 and 96 in the light chain) are shown in Table 2 below.

[2] = biological target: T2, recombinant soluble human MICA*002 antigen (human, UniProt Q29983 24-307); experiment: as above
T2 construct: also called huIMICA-his allele *002
T2 chain: T1 chain with W14G, Y36C, V129M, E173K, S175G, S206G, R210W, T215S
Procedure: as §1

[3] = biological target: T3, recombinant soluble human MICA*008 antigen (human, UniProt Q29983 24-307); experiment: as above
T3 construct: also called huIMICA-his allele *008; recombinant soluble MICA (allele 8)
T3 chain: T1 chain with S175G, T213I, Q251R
Procedure: as §1

[4] = biological target: T4, recombinant soluble human MICA*004 antigen (human, UniProt Q29983 24-307); experiment: as above
T4 construct: also called huIMICA-his allele *004
T4 chain: T1 chain with L122V, T181R, T215S, W216T
Procedure: as §1

[5] = biological target: T3, recombinant soluble human MICA*008 …; experiment: BLI (Octet) sandwich binning on soluble MICA allele 8, row antibody captured; competitor (second antibody): MICA.38
Procedure: (§2) The binning experiments were performed on an Octet HTX instrument at 25° C. in HEPES buffered saline (10 mM HEPES pH 7.4, 150 mM NaCl, 0.05% v/v surfactant P20, and 1 mg/mL BSA). Anti-MICA/B antibodies and NKG2D-mFc were captured on anti-Fc tips and remaining capture sites were blocked with an excess of negative control IgG. Recombinant soluble MICA (allele 8) was bound and subsequent binding (“sandwiching”) of anti-MICA/B antibodies was tested.

[6] = biological target: T3, recombinant soluble human MICA*008 …; experiment: BLI (Octet) sandwich binning on soluble MICA allele 8, row antibody captured; competitor (second antibody): MICA.2
Procedure: as §2

[7] = biological target: T3, recombinant soluble human MICA*008 …; experiment: BLI (Octet) sandwich binning on soluble MICA allele 8, row antibody captured; competitor (second antibody): MICA.40
Procedure: as §2

[8] = biological target: T3, recombinant soluble human MICA*008 …; experiment: BLI (Octet) sandwich binning on soluble MICA allele 8, row antibody captured; competitor (second antibody): MICA.39
Procedure: as §2

[9] = biological target: T3, recombinant soluble human MICA*008 …; experiment: BLI (Octet) sandwich binning on soluble MICA allele 8, row antibody captured; competitor (second antibody): MICA.36
Procedure: as §2

[10] = biological target: T1, recombinant soluble human MICA*009 …; experiment: SPR (Biacore 3000), antibody captured on Protein G chip, huMICA-his analyte
Procedure: (§3) Kinetics and affinity of anti-MICA/B antibodies MICA.2, 19G6, 16A5, and 71C2 towards human MICA alleles (huIMICA-his allele *002, *004, *008, and *009) were also determined on a BIACORE 3000® instrument using the following conditions: [0571] Running Buffer: HES-EP running buffer [0572] Chip: CM5 Protein G Chip Fc1: Blank. Fc2-4: ˜200Rus [0573] Ab: 5 ug/mL, 10 uL @ 10 uL/min [0574] Ag binding: 5 min association, 7 min dissociation @ 25 uL/min, [0575] Regeneration: Glycine 1.7, 10 uL @ 100 uL/min followed by 60s wash by HES-EP

[11] = biological target: T2, recombinant soluble human MICA*002 …; experiment: as above
Procedure: as §3

[12] = biological target: T3, recombinant soluble human MICA*008 …; experiment: as above
Procedure: as §3

[13] = biological target: T4, recombinant soluble human MICA*004 …; experiment: as above
Procedure: as §3

[14] = biological target: T5, human MICB expressed on transduced cells (human, UniProt Q29980 23-382); experiment: flow cytometry, transfected CHO cells
T5 construct: also called MICB*005
T5 chain: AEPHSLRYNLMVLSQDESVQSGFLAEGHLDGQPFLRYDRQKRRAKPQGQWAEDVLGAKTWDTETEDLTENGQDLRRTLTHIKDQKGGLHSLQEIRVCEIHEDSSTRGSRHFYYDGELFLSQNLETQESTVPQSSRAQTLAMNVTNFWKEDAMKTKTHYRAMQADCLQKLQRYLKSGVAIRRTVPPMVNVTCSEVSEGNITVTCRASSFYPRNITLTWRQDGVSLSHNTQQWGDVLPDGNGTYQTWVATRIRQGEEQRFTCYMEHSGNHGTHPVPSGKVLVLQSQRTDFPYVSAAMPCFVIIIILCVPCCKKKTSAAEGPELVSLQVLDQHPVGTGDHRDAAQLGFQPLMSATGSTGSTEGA

[15] = biological target: T6, cynomolgus monkey MICA/B clone #4 expressed on CHO cells (cynomolgus monkey); experiment: flow cytometry, transfected CHO cells
T6 construct: whole, on cells; also called cyno#4; CHO-cyno MICA clone #4

[16] = biological target: T7, cynomolgus monkey MICA/B clone #6 expressed on CHO cells (cynomolgus monkey); experiment: flow cytometry, transfected CHO cells
T7 construct: whole, on cells; also called cyno#6; CHO-cyno MICA clone #6

[17] = biological target: T1, recombinant soluble human MICA*009 …; experiment: SPR (Biacore 3000), antibody captured on Protein G chip, huMICA-his analyte; power of ten not given
Procedure: as §3

[18] = biological target: T2, recombinant soluble human MICA*002 …; experiment: as above
Procedure: as §3

[19] = biological target: T3, recombinant soluble human MICA*008 …; experiment: as above
Procedure: as §3

[20] = biological target: T4, recombinant soluble human MICA*004 …; experiment: as above
Procedure: as §3

B1: MICA.38 (antibody, V domains shown)
VH: EVQLVESGGGLVQPGGSLRLSCAASGFTFSTYSMNWVRQAPGKGLEWVSYISYRSRTIYYADSVKGRFTISRDNARNSLYLQMNSLRDEDTAVYYCARWGYGSGGFDYWGQGTLVTVSS
VL: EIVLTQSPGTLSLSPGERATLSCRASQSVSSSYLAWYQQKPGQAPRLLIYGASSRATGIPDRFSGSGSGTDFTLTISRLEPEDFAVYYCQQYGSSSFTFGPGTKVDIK
notes: MICA.2 with a Ser inserted between residues 95 and 96 in the light chain; also called MICA.38_3F5_S95k
With B1 the Kd [1] was 126 nM, the koff [1] was 0.0502 s⁻¹ and the kon [1] was 397000 M⁻¹ s⁻¹. The Kd [2] was 123 nM, the koff [2] was 0.127 s⁻¹ and the kon [2] was 1.03e+06 M⁻¹ s⁻¹. It also gave a Kd [3] of 130 nM, a koff [3] of 0.078 s⁻¹ and a kon [3] of 600000 M⁻¹ s⁻¹. The Kd [4] was 104 nM, the koff [4] was 0.0426 s⁻¹ and the kon [4] was 410000 M⁻¹ s⁻¹. The “simultaneous binding (0 = no, 1 = yes)” value [5] was 0, the “simultaneous binding (0 = no, 1 = yes)” value [6] was 0 and the “simultaneous binding (0 = no, 1 = yes)” value [7] was 0. For the same binder, the “simultaneous binding (0 = no, 1 = yes)” value [8] was 0 and the “simultaneous binding (0 = no, 1 = yes)” value [9] was 1.

B2: 16A5 (antibody, V domains shown)
VH: QVQLVESGGDVVQPGRSLRLSCAASGFTFSNYNIHWVRQAPGKGLEWVAVIRYDGINKYYADSVKGRFIISRDNSKNTLYLQMNSLRAEDTAVYYCASGPPDAFNIWGQGTMVTVSS
VL: AIQLTQSPSSLSASVGDRVTITCRASQGISSALAWYQQKPGKVPKSLIYDASSLESGVPSRFSGSGSGTDFTLTISSLQPEDFATYYCQQFNSYPITFGQGTRLEIK
notes: Hybridoma antibody; #1 and #2 are two hybridoma lines from the same clone; also called 16A5 (#1); 16A5 (#2)
B2 showed a Kd [10] of 12.9 nM, a Kd [11] of 147 nM and a Kd [12] of 4.55 nM. The Kd [13] was 6.89 nM, the EC50 [14] was 8.16 nM and 21.6 nM and the EC50 [15] was 0.856 nM and 2.38 nM. For the same binder, the EC50 [16] was 9.26 nM and 13.8 nM, the koff [17] was 2.15 s⁻¹ and the koff [18] was 0.0104 s⁻¹. For the same binder, the koff [19] was 1.72 s⁻¹ and the koff [20] was 1.72 s⁻¹.
